Reference: publication PMC8794823

Tests used:
Assay in all cases: SPR
[1] = target: CVB3/MKP3 (VP3-234Q) full particles (coxsackievirus B3, strain MKP)
[2] = target: CVB3/GS12-55/GS/CHN/2012 (VP3-234V) full particles (coxsackievirus B3, isolate GS12-55/GS/CHN/2012)
[3] = target: CVB3/HuN16-54/HuN/CHN/2016 (VP3-234D) full particles (coxsackievirus B3, isolate HuN16-54/HuN/CHN/2016)
[4] = target: CVB3/XJ12-36/XJ/CHN/2012 (VP3-234N) full particles (coxsackievirus B3, isolate XJ12-36/XJ/CHN/2012)

Substance	Kd [1]	Kd [2]	Kd [3]	Kd [4]
soluble extracellular D1 and D2 domains of the human CAR protein (from UniProt P78310 20-236) (receptor)	3.16 µM	–	–	–
soluble extracellular domain of the human CD55 protein (from UniProt P08174 35-285) (receptor)	0.465 µM	10 µM	46 µM	7.8 µM
